Measured values from patent US11795488B2, “Methods for enzymatic peptide ligation” (NANYANG TECHNOLOGICAL UNIVERSITY, priority 2016, dated 2023).

Legend:
[1] = test system: HEK293T; experiment: Cell surface labeling with fluorescently tagged SNAP protein; format: cell-based, human; conditions: 10 μM SNAP-NGL, 0.1 μM Quicklase, 30 minutes˜1 hour
Procedure: (§1) (b) Fluorecently tagged SNAP (New England Biolabs) protein was conjugated to the intrinsic cellular surface proteins of two different cell lines, RAW cell ([…]) and HEK293T (human epithelial cell line). 10 μM modified SNAP protein (with additional C-terminal NGL residues, lane 1 sample) with or without (lane 2 and lane 5 samples) coincubation of 0.1 μM Quicklase were added to cell culture, pre-washed with PBS buffer. After 30 minutes˜1 hour incubation, cells were rinsed with additional PBS buffer (lane 3 and lane 6 were first wash samples), two times. The remaining cell was harvested and lysed with SDS loading buffer (lane 4 and 7 samples). All samples were examined using SDS-PAGE, and only the covalently fluorescently tagged SNAP protein carried the signal on the gel, which were shown as dark bands in (b). […] (c) Surface modified RAW cells were examined using a fluorescent microscope, bright spots on the cellular surface indicated successful surface labelling of intrinsic cellular membrane.
(§2) 0.1 to 1 μM of OaAEP1 Cys247Ala was added to cellular culture in standard cell culture conditions. 1-20 μM labeling protein tags were added to the reaction afterwards, and incubated for 30-45 mins at 37° C. and standard culturing condition, before both excess enzymes and labelling tags were washed away. […]

[2] = test system: RAW cell; experiment: as above; format: cell-based, human; conditions: 10 μM SNAP-NGL, 0.1 μM Quicklase, 30 minutes˜1 hour
Procedure: as §1, §2

[3] = test system: ubiquitin and SNAP tag protein; experiment: Ligation of two well-folded proteins; format: biochemical
Procedure: (§3) (a) Fluorescence detection using 02 benzylcytosine-Alexa647 of the SNAP protein and SDS PAGE analysis with Comassie blue staining detection of the protein substrate and ligated products. The reaction is schematically depicted as inset. Cys247Ala ligates well folded protein well. […] (b) As little as 30 nM Cys247Ala catalyze ligation of 100 μM Ubiquitin and 500 μM biotin labelled peptide efficiently in 30 min, at room temperature, in pH 7.4 PBS buffer.
(§4) The ability of Cys247Ala to ligate ubiquitin with a peptide was first tested. The three residues“Asn-Gly-Leu” were added to the C-terminus of ubiquitin to make it recognizable by Cys247Ala. Another peptide having N-terminal residues GlyLeu was used as the add-on component. At a protein: peptide molar ratio of 1:5, Cys247Ala catalyzed the ligation of more than 90% ubiquitin with the peptide within 10 min (FIG. 6). An amount of 30 nM of Cys247Ala was enough for the reaction compared to 10-30 μM of sortase A typically required to perform productive ligations. […] Ubiquitin having the same “Asn-Gly-Leu” modification at its C-terminal end and a N-terminal modified SNAP (NEB) tag protein were used as substrates. […] Protein ligation can be performed within minutes at neutral pH and at room temperature.

[4] = test system: ubiquitin with C-terminal Asn-Gly-Leu and peptide having N-terminal residues GlyLeu; experiment: Ligation of ubiquitin with a peptide; format: biochemical
Procedure: as §3, §4

[5] = test system: peptide substrate; experiment: Comparison of cyclization efficiency of gate-keeper Cys247 mutants (MALDI-TOF MS); format: biochemical
Procedure: (§5) Native and modified amino acids were purchased from Sigma-Aldrich (USA). All peptides used in this manuscript were synthesized in-house using the solid-phase method and HPLC purified. Cyclization assays were performed in 50-μl reaction mixtures containing 20 mM phosphate buffer, ligases (5 to 700 nM) and peptide substrates (10 to 300 μM). Each reaction was performed in triplicate at 37° C. and quenched by adding 5 μl of 1 M HCl solution. The peptides were separated by using a reversed-phase C18 analytical column (150×2.1 mm, Vydac) with a linear gradient from 10% to 50% acetonitrile over 15 min on a Nexera UHPLC system (Shimadzu). For kinetic analysis, the concentrations of WT OaAEP1, mutant OaAEP1, and butelase 1 were fixed at 700 nM, 50 nM, and 20 nM, respectively. The cyclization velocities were calculated by converting the HPLC-peak areas of remained linear precursors or the cyclized products into concentrations. The identity of each HPLC peak was analyzed by MALDI-TOF MS (ABI 4800 MALDI TOF/TOF). The velocities were input into GraphPad Prism (GraphPad Software, San Diego) to obtain the Michaelis-Menten curve and the kinetic parameters (kcat and Km). Comparison for the cyclization efficiency of various OaAEP1 mutants were performed in a volume of 20 μl of the reaction mixture and analyzed by MALDI-TOF MS after 10 mins or 1 hour ligation reaction.
The pre-ligation conformation of OaAEP1 captured in the present structure was then analyzed to identify several key features that could differentiate an AEP protease from an AEP-like ligase. […] In contrast to AEP proteases, the surface of OaAEP1 facing the catalytic Cys217 appears to be more widely open. Three cysteine residues (Cys247, Cys250, Cys264) are aligned along a shallow cleft at the surface of the enzyme (FIGS. 3C and 3E). Unlike the surface of AEP proteases that contains several bulges, both butelase 1 (using a homology model based on OaAEP1b) and OaAEP1 have residues with smaller side-chains along this patch. A disulfide bond is formed between Cys250 and Cys264, which are conserved in AEP-like ligases butelase 1 and OaAEP1b. This covalent bond is likely to stabilize the local structure and provide an adequate surface allowing the approach of an N-terminal amine incoming group. Conversely, the corresponding surface patch of AEP proteases (PDB: 4AWA) is lined with residues having bulky side-chains like Tyr (FIG. 3E) blocking this channel. It was therefore hypothesized that residue Cys247 which is located at the extremity of the substrate channel is likely to function as a final nucleophile filter (or “gate-keeper”), allowing attack from the N-terminal amine to complete the ligation reaction. […]

[6] = test system: peptide substrate "GLPVSTKPVATRNGL" (SEQ ID NO: 18); experiment: Peptide cyclization assay, kinetic analysis (HPLC/MS); format: biochemical
Procedure: as §5
The peptide cyclization activity of mature OaAEP1 was then analyzed using MS and the peptide substrate “[…]” (SEQ ID NO: 18) (FIG. 5A). The turn-over rate (kcat) for OaAEP1 is 0.052 s^−1, a value in good agreement with the previous report (Harris, K. S., et al., Nat Commun, 2015. 6: p. 10199). Likewise, the cyclization activity of butelase 1 extracted from plant was measured using the 15 residues peptide “[…]” (SEQ ID NO: 19) (FIG. 5A) leading to a kcat about 90 times faster than OaAEP1 b.

B1: Cys247Ala: OaAEP1 Cys247Ala (Quicklase), Asx-specific peptide ligase having the amino acid sequence of SEQ ID NO:1 (protein, listed as Ovaloparmena affinis)
chain: MVRYLAGAVLLLVVLSVAAAVSGARDGDYLHLPSEVSRFFRPQETNDDHGEDSVGTRWAVLIAGSKGYANYRHQAGVCHAYQILKRGGLKDENIVVFMYDDIAYNESNPRPGVIINSPHGSDVYAGVPKDYTGEEVNAKNFLAAILGNKSAITGGSGKVVDSGPNDHIFIYYTDHGAAGVIGMPSKPYLYADELNDALKKKHASGTYKSLVFYLEACESGSMFEGILPEDLNIYALTSTNTTESSWAYYCPAQENPPPPEYNVCLGDLFSVAWLEDSDVQNSWYETLNQQYHHVDKRISHASHATQYGNLKLGEEGLFVYMGSNPANDNYTSLDGNALTPSSIVVNQRDADLLHLWEKFRKAPEGSARKEEAQTQIFKAMSHRVHIDSSIKLIGKLLFGIEKCTEILNAVRPAGQPLVDDWACLRSLVGTFETHCGSLSEYGMRHTRTIANICNAGISEEQMAEAASQACASIP
conjugation of SNAP protein to intrinsic cellular surface proteins [1]: significant amount of intrinsic proteins in RAW and HEK283T cells were conjugated with SNAP protein | conjugation of SNAP protein to intrinsic cellular surface proteins [2]: significant amount of intrinsic proteins in RAW and HEK283T cells were conjugated with SNAP protein | protein ligation activity (control ligation experiments) [3]: protein ligation activity could only be observed in the presence of the Cys247Ala protein | individual substrate proteins ligated into a single polypeptide product ([3]; 5 μM SNAP tag protein, 8 μM ubiquitin, 100 nM enzyme): more than 60% | ligation of SNAP tag protein with Ubiquitin ([3]; 5 μM SNAP tag, 100 nM Cys247Ala, 4000 nM wild type OaAEP1b): efficiently ligated | enzyme concentration that catalyzes ligation efficiently ([4]; 100 μM Ubiquitin, 500 μM biotin labelled peptide, 30 min, room temperature, pH 7.4 PBS): 30 nM | ubiquitin ligated with the peptide ([4]; protein: peptide molar ratio 1:5, within 10 min): more than 90% | amount of enzyme enough for the reaction ([4]; ubiquitin-peptide ligation): 30 nM | alternative reaction when N-terminal amine is not available ([5]; N-terminal amine group acetylated): side chain ligation is more preferred | ligase activity compared to WT OaAEP1 ([5]; gate-keeper position 247 mutants): significantly improved enzymatic properties | kcat relative to WT OaAEP1b [6]: approximately 160 times | peptide ligase catalytic activity relative to wild type OaAEP1 [6]: ~160 times
